Measured values published in PMC11018632, “The CB1 receptor interacts with cereblon and drives cereblon deficiency-associated memory shortfalls” (EMBO Molecular Medicine, 2024).

T1: 5-IAF-labelled 6xHis-tagged human CB1R carboxy-terminal domain (hCB1R-CTD, amino acids 400-472) (human, UniProt P21554 400-472, labelled with 5-(iodoacetamido)fluorescein (5-IAF))
T1 chain: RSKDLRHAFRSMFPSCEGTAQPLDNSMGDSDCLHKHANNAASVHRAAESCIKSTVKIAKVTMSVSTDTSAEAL


Columns and labels:
[1] = target: T2, 6xHis-tagged human cereblon (hCRBN), recombinant (human, UniProt Q96SW2 1-442); experiment: fluorescence polarisation; saturation binding; constant 100 nM 5-IAF-hCB1R-CTD and increasing amounts of hCRBN (~0-100 µM); fitted to a one-site equation for Kd; details: both partners purified
T2 construct: cereblon/CRBN, human; human CRBN cDNA inserted in the pBH4 vector; the introduction speaks of the 442 amino-acid protein; No tag cleavage is described; also called His6-tagged CRBN; unlabelled human CRBN

[2] = target: T1, 5-IAF-labelled 6xHis-tagged human CB1R …; experiment: FP

Binder | binding result [1] | Kd [2] [µM]
5-IAF-labelled 6xHis-tagged human CB1R carboxy-terminal domain (hCB1R-CTD, amino acids 400-472) (domain or fragment, UniProt P21554 400-472, looked up, labelled with 5-(iodoacetamido)fluorescein (5-IAF), type-1 cannabinoid receptor (CB1R), human, carboxy-terminal domain, amino acids 400-472; The construct was made in earlier work (Costas-Insua et al, 2021); The results section gives aa 408-472 for the CTD of the earlier proteomic screen; also called 5-IAF-hCB1R-CTD; His6-tagged CB1R-CTD) RSKDLRHAFRSMFPSCEGTAQPLDNSMGDSDCLHKHANNAASVHRAAESCIKSTVKIAKVTMSVSTDTSAEAL | binds | –
6xHis-tagged human cereblon (hCRBN), recombinant (natural protein) MAGEGDQQDAAHNMGNHLPLLPAESEEEDEMEVEDQDSKEAKKPNIINFDTSLPTSHTYLGADMEEFHGRTLHDDDSCQVIPVLPQVMMILIPGQTLPLQLFHPQEVSMVRNLIQKDRTFAVLAYSNVQEREAQFGTTAEIYAYREEQDFGIEIVKVKAIGRQRFKVLELRTQSDGIQQAKVQILPECVLPSTMSAVQLESLNKCQIFPSKPVSREDQCSYKWWQKYQKRKFHCANLTSWPRWLYSLYDAETLMDRIKKQLREWDENLKDDSLPSNPIDFSYRVAACLPIDDVLRIQLLKIGSAIQRLRCELDIMNKCTSLCCKQCQETEITTKNEIFSLSLCGPMAAYVNPHGYVHETLTVYKACNLNLIGRPSTEHSWFPGYAWTVAQCKICASHIGWKFTATKKDMSPQKFWGLTRSALLPTIPDTEDEISPDKVILCL | – | 2.81
